From patent publication US10487307B2, “Culture method for pluripotent stem cells” (FUJIFILM CORPORATION, priority 2013, dated 2019)

B1: RCP-7: recombinant polypeptide for culture, SEQ ID NO: 21; vitronectin positions 1-55, 269-373, C274S (protein)
chain: MDQESCKGRCTEGFNVDKKCQCDELCSYYQSCCTDYTAECKPQVTRGDVFTMPEDESQEESEGSSLSAVFEHFAMMQRDSWEDIFELLFWGRTSAGTRQPQFISRDWHGVPGQVDAAMAGRIYISGMAPRPSLAKKQRFRHRNRKGYRSQRGHSRGRNQN
modifications: Vitronectin-derived Recombinant Protein (RCP-7)
notes: vitronectin positions 1-55, 269-373, C274S
B2: RCP-8: recombinant polypeptide for culture, SEQ ID NO: 22; vitronectin positions 1-55, 269-373, 374-379, C274S (protein)
chain: MDQESCKGRCTEGFNVDKKCQCDELCSYYQSCCTDYTAECKPQVTRGDVFTMPEDESQEESEGSSLSAVFEHFAMMQRDSWEDIFELLFWGRTSAGTRQPQFISRDWHGVPGQVDAAMAGRIYISGMAPRPSLAKKQRFRHRNRKGYRSQRGHSRGRNQNSRRPSR
modifications: Vitronectin-derived Recombinant Protein (RCP-8)
notes: vitronectin positions 1-55, 269-373, 374-379, C274S
B3: RCP-9: recombinant polypeptide for culture, SEQ ID NO: 23; vitronectin positions 1-55, 269-373, 374-389, C274S (protein)
chain: MDQESCKGRCTEGFNVDKKCQCDELCSYYQSCCTDYTAECKPQVTRGDVFTMPEDESQEESEGSSLSAVFEHFAMMQRDSWEDIFELLFWGRTSAGTRQPQFISRDWHGVPGQVDAAMAGRIYISGMAPRPSLAKKQRFRHRNRKGYRSQRGHSRGRNQNSRRPSRATWLSLFSSE
modifications: Vitronectin-derived Recombinant Protein (RCP-9)
notes: vitronectin positions 1-55, 269-373, 374-389, C274S
B4: RCP-10: recombinant polypeptide for culture, SEQ ID NO: 24; vitronectin positions 1-55, 269-373, 374-399, C274S (protein)
chain: MDQESCKGRCTEGFNVDKKCQCDELCSYYQSCCTDYTAECKPQVTRGDVFTMPEDESQEESEGSSLSAVFEHFAMMQRDSWEDIFELLFWGRTSAGTRQPQFISRDWHGVPGQVDAAMAGRIYISGMAPRPSLAKKQRFRHRNRKGYRSQRGHSRGRNQNSRRPSRATWLSLFSSEESNLGANNYD
modifications: Vitronectin-derived Recombinant Protein (RCP-10)
notes: vitronectin positions 1-55, 269-373, 374-399, C274S
B5: RCP-2: recombinant polypeptide for culture, SEQ ID NO: 16; vitronectin positions 1-55 and 342-373 (protein)
chain: MDQESCKGRCTEGFNVDKKCQCDELCSYYQSCCTDYTAECKPQVTRGDVFTMPEDEPRPSLAKKQRFRHRNRKGYRSQRGHSRGRNQN
modifications: Vitronectin-derived Recombinant Protein (RCP-2)
B6: RCP-3: recombinant polypeptide for culture, SEQ ID NO: 17; vitronectin positions 1-55, 322-341, 342-373 (protein)
chain: MDQESCKGRCTEGFNVDKKCQCDELCSYYQSCCTDYTAECKPQVTRGDVFTMPEDEGVPGQVDAAMAGRIYISGMAPRPSLAKKQRFRHRNRKGYRSQRGHSRGRNQN
modifications: Vitronectin-derived Recombinant Protein (RCP-3)
B7: RCP-4: recombinant polypeptide for culture, SEQ ID NO: 18; vitronectin positions 1-55, 312-341, 342-373 (protein)
chain: MDQESCKGRCTEGFNVDKKCQCDELCSYYQSCCTDYTAECKPQVTRGDVFTMPEDEQPQFISRDWHGVPGQVDAAMAGRIYISGMAPRPSLAKKQRFRHRNRKGYRSQRGHSRGRNQN
modifications: Vitronectin-derived Recombinant Protein (RCP-4)
B8: RCP-6: recombinant polypeptide for culture, SEQ ID NO: 20; vitronectin positions 1-55, 269-459, C274S (protein)
chain: MDQESCKGRCTEGFNVDKKCQCDELCSYYQSCCTDYTAECKPQVTRGDVFTMPEDESQEESEGSSLSAVFEHFAMMQRDSWEDIFELLFWGRTSAGTRQPQFISRDWHGVPGQVDAAMAGRIYISGMAPRPSLAKKQRFRHRNRKGYRSQRGHSRGRNQNSRRPSRATWLSLFSSEESNLGANNYDDYRMDWLVPATSEPIQSVFFFSGDKYYRVNLRTRRVDTVDPPYPRSIAQYWLGSPAPGHL
modifications: Vitronectin-derived Recombinant Protein (RCP-6)
notes: vitronectin positions 1-55, 269-459, C274S

tested on: human iPS cells ("Tic"); test: Cell adhesiveness evaluation 1 (ALP activity of adhesive iPS cells); type: cell-based; conditions: added amount 5 μg/cm^2; 30,000 cells/well, 24 hours; natural vitronectin (sample 15) = 100%; n=3
Method: The cell adhesiveness of human iPS cells (“Tic”: Cell No. JCRB 1331: from National Institute of Biomedical Innovation. [567-0085, 7-6-8 Asagi Saito Ibaraki-City Osaka]) with respect to the aforementioned polypeptides was evaluated in the following manner.
As feeder cells for retaining the human iPS cells, EmbryoMax (registered trademark) (early mouse embryonic fibroblasts: resistant to hygromycin, treated with mitomycin C, derived from C57/BL6, third passage) (Millipore Corporation) was used. By using DMEM (Invitrogen) and a 10% (v/v) fetal bovine serum medium, the feeder cells were cultured for 24 hours and attached to a T25 flask (Corning Incorporated). As a medium for the human iPS cells, the one obtained by adding FGF-2 (Sigma-Aldrich Co, LLC.) to a medium composed as shown in Table 6 at a final concentration of 10 ng/ml was used.
By using the aforementioned medium, the human iPS cells were retained and cultured in a 5% (v/v, the same unit will be used hereinafter) CO2 incubator at 37° C. Except for the day after the seeding of the iPS cells, the medium was replaced every day. The subculture operation was performed by exfoliating the cells by using Dispase II (neutral protease Grade II, Roche) and separating the cells in an appropriate size by a pipetting operation.
The iPS cells cultured as described above were treated with TrypLE Select (Invitrogen) for 5 minutes at 37° C. and separated into a single cell. After being subjected to centrifugation for 2 minutes at 300 rpm, the cells were collected and suspended in TeSR2 (a medium not containing a heterogeneous animal-derived component and a serum component, STEMCELL Technologies.) containing Y-27362 ((R)-(+)-trans-N-(4-pyridyl)-4-(1-aminoethyl)-cyclohexane carboxamide.2HCl.H2O, an Rho binding kinase inhibitor, Wako Pure Chemical Industries, Ltd.) at a final concentration of 10 μM.
Each of RCP-1 to RCP-11, RCP-21, RCP-25, and RCP-26 as control, human vitronectin (extracted from human serum, BD Biosciences), and recombinant laminin (rLaminin-5: Oriental Yeast Co., ltd. and Human Recombinant Laminin-511: BIOLAMINA AB) was added to and suspended in a predetermined buffer (a dialysis buffer used in <GRAVY value and aggregation characteristics> described above for RCP-1 to RCP-11, and PBS for RCP-21, RCP-25, human vitronectin, and recombinant laminin) at the concentration shown in Table 7, thereby preparing samples 1 to 17. The samples were added to the respective wells of a 96-well plate and adsorbed onto the plate by being held for 2 hours at 37° C.
Into the respective wells of the 96-well plate treated with the peptides, iPS cells were seeded at a cell density of 30,000 cells/well. After the cells were cultured for 24 hours, the nonadhesive cells were washed off with PBS, and only the adhesive cells were immobilized by using 4% (v/v) paraformaldehyde (Wako Pure Chemical Industries, Ltd.). By using an Attophos (registered trademark) AP Fluorescent Substrate System (Promega Corporation), the ALP activity was calculated, and from the calibration curve, the number of undifferentiated iPS cells having the ALP activity was calculated. In Table 7, the cell adhesion rate is expressed as a ratio calculated by regarding the cell adhesion rate obtained from the sample 15 using natural vitronectin as being 100%. n=3.

Q: With B1 as the molecule, how does the “Cell adhesion rate (%)” value read?
A: 88.6 ± 8.1%

Q: Which “Cell adhesion rate (%)” value does the source give for B2 here?
A: 89.2 ± 1.4%

same assay, conditions: added amount 20 μg/cm^2; 30,000 cells/well, 24 hours; natural vitronectin (sample 15) = 100%; n=3

Q: With B3 as the molecule, how does the “Cell adhesion rate (%)” value read?
A: 95.5 ± 10.2%

Q: For B4, which “Cell adhesion rate (%)” value is on record?
A: 93.0 ± 7.8%

Q: For B5, which “Cell adhesion rate (%)” value is on record?
A: 98.7 ± 6.2%

Q: With B6 as the molecule, how does the “Cell adhesion rate (%)” value read?
A: 106.1 ± 4.5%

Q: With B7 as the molecule, how does the “Cell adhesion rate (%)” value read?
A: 100.1 ± 4.5%

Q: With B8 as the molecule, how does the “Cell adhesion rate (%)” value read?
A: 92.8 ± 4.4%

tested on: not listed separately; test: Aggregation after dialysis of purified polypeptide solution; type: physicochemical; design: key: G: The formation of an aggregate was not observed.; A: The formation of particles having a particle size of about 100 nm was observed.; B: The formation of an aggregation of particles having a particle size of equal to or greater than 1 mm was visually observed; conditions: not given
Method: For RCP-1 to RCP-11, each of the purified polypeptide solutions was dialyzed using Slide-A-Lizer (3.5 K MWCO.). Basically, by using a dialysis buffer (PBS, 1.5 M NaCl, 0.5 M L-arginine, 1 mM EDTA, pH 7.4) as an outer dialysate, urea was removed by stepwise dialysis. The concentration of the end-product of dialysis was calculated from the absorbence at 280 nm by using NanoDrop (Thermo Fisher Scientific Inc.).
Whether or not aggregation was occurred was evaluated based on the scale of A, and B as shown below.
G: The formation of an aggregate was not observed.
A: The formation of particles having a particle size of about 100 nm was observed.
B: The formation of an aggregation of particles having a particle size of equal to or greater than 1 mm was visually observed.

Q: Which Aggregation does the source give for B1 here?
A: A

Q: Which Aggregation does the source give for B2 here?
A: A

Q: Which Aggregation does the source give for B3 here?
A: B (The formation of an aggregation of particles having a particle size of equal to or greater than 1 mm was visually observed.)

Q: Which Aggregation does the source give for B4 here?
A: B (The formation of an aggregation of particles having a particle size of equal to or greater than 1 mm was visually observed.)

Q: Which Aggregation does the source give for B5 here?
A: G

Q: For B6, which Aggregation is on record?
A: G

Q: Which Aggregation does the source give for B7 here?
A: G

Q: For B8, which Aggregation is on record?
A: A

tested on: iPS cells; test: Growth evaluation, number of cells after 3 days; type: cell-based, human; conditions: added amount 5 μg/cm^2; 5,000 cells/well; sample 1 (RCP-1) = 100%
Method: By adding RCP-1 to RCP-11 and Human Recombinant Laminin-511 as control at the concentration shown in Table 9, samples 1 to 12 were prepared. The samples were seeded into a 96-well plate, onto which each of the polypeptides was adsorbed in the same manner as in <Cell adhesiveness evaluation 1>, at a ratio of 5,000 cells/well and cultured for 3 days in a CO2 incubator at 37° C. The number of cells after 3 days was calculated in the same manner as in <Cell adhesiveness evaluation 1>. In Table 9, the number of cells after 3 days is expressed as a ratio calculated by regarding the number of cells obtained by using the sample 1 as being 100%.

Q: Which “Number of cells after 3 days (%)” value does the source give for B1 here?
A: 89.9%

Q: For B2, which “Number of cells after 3 days (%)” value is on record?
A: 171.0%

same assay, conditions: added amount 20 μg/cm^2; 5,000 cells/well; sample 1 (RCP-1) = 100%

Q: For B3, which “Number of cells after 3 days (%)” value is on record?
A: 105.8%

Q: With B4 as the molecule, how does the “Number of cells after 3 days (%)” value read?
A: 101.9%

Q: With B5 as the molecule, how does the “Number of cells after 3 days (%)” value read?
A: 81.7%

Q: With B6 as the molecule, how does the “Number of cells after 3 days (%)” value read?
A: 109.7%

Q: With B7 as the molecule, how does the “Number of cells after 3 days (%)” value read?
A: 120.7%

Q: For B8, which “Number of cells after 3 days (%)” value is on record?
A: 70.5%
